± gives the standard error. For some assays here: Fewer inactive variants are shown than the library holds.
B1: glmS ribozyme (parent)
chain: AUAAAAGCGCCAGAACUACAGAAAUGUAGUUGACGAGGAGGAGGUUUAUCGAAUUUUCGGCGGAUGCCUCCAAA

Key:
Conditions in all cases: with glucosamine-6-phosphate
[1] = variants of: B1; test: kcat; higher = faster cleavage; RNA array
Outline: (§1)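 E. coli RNA polymerase transcribed barcoded ribozyme variants in situ on sequenced MiSeq chips, which were tracked via a hybridised Cy3 probe at 37 °C. Tiles were imaged over ~14 h after glucosamine-6-phosphate (40 μM to 10 mM) in HEPES/KCl/Mg(OAc)2 buffer was flowed in. Normalised per-tile medians were fit to one- or two-exponential decays for kobs, and kcat and KM came from weighted Michaelis–Menten fits.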

[2] = variants of: B1; test: KM; higher = weaker cofactor use; RNA array
Outline: as §1

[3] = variants of: B1; test: self-cleavage kobs at 40 uM GlcN6P; higher = faster cleavage; RNA array
Outline: as §1

[4] = variants of: B1; test: self-cleavage kobs at 160 uM GlcN6P; higher = faster cleavage; RNA array
Outline: as §1

[5] = variants of: B1; test: self-cleavage kobs at 640 uM GlcN6P; higher = faster cleavage; RNA array
Outline: as §1

[6] = variants of: B1; test: self-cleavage kobs at 2500 uM GlcN6P; higher = faster cleavage; RNA array
Outline: as §1

[7] = variants of: B1; test: self-cleavage kobs at 10000 uM GlcN6P; higher = faster cleavage; RNA array
Outline: as §1

Row | Variant | kcat [1] | KM [2] | self-cleavage kobs at 40 uM GlcN6P [3] | self-cleavage kobs at 160 uM GlcN6P [4] | self-cleavage kobs at 640 uM GlcN6P [5] | self-cleavage kobs at 2500 uM GlcN6P [6] | self-cleavage kobs at 10000 uM GlcN6P [7]
1 | G41U A42G | 0.000998 ± 0.00021 s⁻¹ | 1240 ± 450 µM | 4.79e-05 ± 9.1e-06 s⁻¹ | 9.47e-05 ± 2e-05 s⁻¹ | 0.000285 ± 6.2e-05 s⁻¹ | 0.000816 ± 0.00012 s⁻¹ | 0.000843 ± 0.00012 s⁻¹
2 | A42G U57A | 0.000299 ± 4.6e-05 s⁻¹ | – | < 1e-05 s⁻¹ | – | 0.000118 ± 3.7e-05 s⁻¹ | 0.000351 ± 0.00012 s⁻¹ | 0.000266 ± 4.4e-05 s⁻¹
3 | A42U U55C | 0.000267 ± 2.5e-05 s⁻¹ | 1350 ± 250 µM | – | – | 8.56e-05 ± 9.8e-06 s⁻¹ | 0.000198 ± 3e-05 s⁻¹ | 0.000223 ± 3e-05 s⁻¹
4 | A42G C71U | 0.0155 ± 0.0039 s⁻¹ | 732 ± 250 µM | 0.000864 ± 0.0001 s⁻¹ | 0.00294 ± 0.00058 s⁻¹ | 0.0053 ± 0.0011 s⁻¹ | 0.0147 ± 0.0047 s⁻¹ | 0.0178 ± 0.0034 s⁻¹
5 | G41U A64G | 0.000821 ± 6e-05 s⁻¹ | 2970 ± 430 µM | – | 3.5e-05 ± 9.6e-06 s⁻¹ | 0.00015 ± 2.3e-05 s⁻¹ | 0.000414 ± 5.2e-05 s⁻¹ | 0.000621 ± 4.9e-05 s⁻¹
6 | A42G A64G | 0.024 ± 0.0071 s⁻¹ | 1370 ± 520 µM | 0.000694 ± 0.00014 s⁻¹ | 0.0024 ± 0.00059 s⁻¹ | 0.00754 ± 0.0017 s⁻¹ | 0.0422 ± 0.015 s⁻¹ | 0.0194 ± 0.0055 s⁻¹
7 | A42G U49A | 1.03e-05 ± 2.5e-06 s⁻¹ | – | – | – | – | – | –
8 | A42G U49G | 0.00144 ± 0.00033 s⁻¹ | 3190 ± 1100 µM | 5.36e-05 ± 2.3e-05 s⁻¹ | 5.71e-05 ± 1.4e-05 s⁻¹ | 0.000275 ± 4.4e-05 s⁻¹ | 0.000609 ± 9.7e-05 s⁻¹ | 0.0011 ± 0.00017 s⁻¹
9 | G41U A53G | 0.00129 ± 0.00028 s⁻¹ | 291 ± 120 µM | 0.000167 ± 2.7e-05 s⁻¹ | 0.000362 ± 7.8e-05 s⁻¹ | 0.00133 ± 0.0002 s⁻¹ | 0.000959 ± 0.00015 s⁻¹ | 0.00153 ± 0.00029 s⁻¹
10 | A42G G51A | < 1e-05 s⁻¹ | – | < 1e-05 s⁻¹ | – | – | – | < 1e-05 s⁻¹
11 | G41A U55G | 0.000144 ± 2.3e-05 s⁻¹ | – | – | 5.67e-05 ± 1.5e-05 s⁻¹ | 0.000142 ± 3.9e-05 s⁻¹ | 0.000107 ± 1.9e-05 s⁻¹ | 0.000179 ± 2.9e-05 s⁻¹
12 | A42G G43A | 0.000155 ± 2.1e-05 s⁻¹ | 1440 ± 500 µM | < 1e-05 s⁻¹ | – | 5.32e-05 ± 1.5e-05 s⁻¹ | 8.7e-05 ± 2.3e-05 s⁻¹ | 0.000143 ± 2.8e-05 s⁻¹
13 | A42C U49G | 1.03e-05 ± 3.2e-07 s⁻¹ | 512 ± 51 µM | – | – | – | – | –
14 | G41U U55A | 0.000121 ± 2e-05 s⁻¹ | – | – | 5.55e-05 ± 1.3e-05 s⁻¹ | 0.000132 ± 2e-05 s⁻¹ | 0.000105 ± 3.7e-05 s⁻¹ | 0.000105 ± 1.7e-05 s⁻¹
15 | G43A U45A | 5.51e-05 ± 7.6e-07 s⁻¹ | 2720 ± 100 µM | – | – | – | 2.63e-05 ± 1.1e-05 s⁻¹ | 4.33e-05 ± 1.3e-05 s⁻¹
16 | A42G U65A | 0.00459 ± 0.0018 s⁻¹ | – | 0.000318 ± 9.9e-05 s⁻¹ | 0.000409 ± 8.8e-05 s⁻¹ | 0.00121 ± 0.00028 s⁻¹ | 0.00291 ± 0.00077 s⁻¹ | 0.00423 ± 0.0014 s⁻¹
17 | A42U U46G | 5.79e-05 ± 3.4e-06 s⁻¹ | 901 ± 260 µM | – | – | 2.81e-05 ± 1.4e-05 s⁻¹ | 3.86e-05 ± 1.2e-05 s⁻¹ | 5.41e-05 ± 8.3e-06 s⁻¹
18 | A42U U46A | 0.000165 ± 3.2e-05 s⁻¹ | 4410 ± 1900 µM | – | – | – | 7.32e-05 ± 1.7e-05 s⁻¹ | 0.000112 ± 1.7e-05 s⁻¹
19 | G41C C71U | 0.000207 ± 2.1e-05 s⁻¹ | 2580 ± 590 µM | – | – | 3.67e-05 ± 8.3e-06 s⁻¹ | 0.000119 ± 1.8e-05 s⁻¹ | 0.00016 ± 1.7e-05 s⁻¹
20 | G41C U54G | 0.000435 ± 5.6e-05 s⁻¹ | 1610 ± 450 µM | – | – | 0.000123 ± 2.4e-05 s⁻¹ | 0.000354 ± 8.9e-05 s⁻¹ | 0.000363 ± 4.8e-05 s⁻¹
21 | G41U G66U | 5.98e-05 ± 1.9e-06 s⁻¹ | 582 ± 89 µM | – | < 1e-05 s⁻¹ | 3.02e-05 ± 1.5e-05 s⁻¹ | 5.12e-05 ± 1.5e-05 s⁻¹ | 5.53e-05 ± 1.3e-05 s⁻¹
22 | A42G A53U | 0.0339 ± 0.012 s⁻¹ | 2240 ± 990 µM | 0.000764 ± 0.00011 s⁻¹ | 0.00186 ± 0.00035 s⁻¹ | 0.0076 ± 0.0013 s⁻¹ | 0.0159 ± 0.0028 s⁻¹ | 0.0373 ± 0.009 s⁻¹
23 | A42U A48U A64U C68U | < 1e-05 s⁻¹ | 11.3 ± 3.5 µM | – | – | – | < 1e-05 s⁻¹ | < 1e-05 s⁻¹
24 | G41U A52G | 0.000128 ± 2e-05 s⁻¹ | 1140 ± 560 µM | – | – | 3.83e-05 ± 8.7e-06 s⁻¹ | 0.000113 ± 1.3e-05 s⁻¹ | 0.000107 ± 1.1e-05 s⁻¹
25 | G41A U46G C70U | 0.00726 ± 0.0013 s⁻¹ | 620 ± 170 µM | 0.000436 ± 0.0001 s⁻¹ | – | 0.00452 ± 0.0018 s⁻¹ | – | 0.00749 ± 0.002 s⁻¹
26 | A42G A48G | 9.11e-05 ± 9e-06 s⁻¹ | – | – | – | – | – | 3.86e-05 ± 1.7e-05 s⁻¹
27 | A42G A48U | 0.00077 ± 0.00015 s⁻¹ | 3220 ± 1100 µM | – | – | 0.000148 ± 4.3e-05 s⁻¹ | – | 0.000576 ± 0.00013 s⁻¹
28 | A42G U47C | 0.00858 ± 0.0022 s⁻¹ | 6280 ± 2000 µM | 6.46e-05 ± 2.1e-05 s⁻¹ | 0.000257 ± 7.7e-05 s⁻¹ | 0.00074 ± 0.00014 s⁻¹ | 0.00232 ± 0.00039 s⁻¹ | 0.00583 ± 0.0016 s⁻¹
29 | A42C U55G | < 1e-05 s⁻¹ | – | < 1e-05 s⁻¹ | – | – | – | –
30 | G41U U56A C70A | 0.0279 ± 0.012 s⁻¹ | – | – | 0.00226 ± 0.00043 s⁻¹ | 0.0096 ± 0.0018 s⁻¹ | 0.033 ± 0.0088 s⁻¹ | 0.0192 ± 0.0059 s⁻¹
